According to article PMC6783867 (2019):

B1: 10th and 11th cadherin repeat domains of the Plutella xylostella cadherin (PxCR10–11), GST-tagged (domain or fragment)
chain: QAVDLKNEGCTADAGDCYSVYYRIVSDISESFKVDAEKNIISLTRELDRADGVRHIVTVAASNQPDATDNPTNVLTVTVFVREANPRPIFENEVYTAGISTMDSINRELFTVKATRTENLSIKYTIDPSSMVADTSLQSVQGSAFELDADSGVLTLKIKPTASMRGMFEFEVIATDTEQATDRAEVKVYIVSDNNRVSFLFQNQLTQVEQYRDFIAQTLSAGFKMACNIDEVIPSTDAGGSPVEGVTEVRAHFIRDNQPVTADVIEALRSDVELLTNIQRTLNTNLLVLTDFVTDISPSVTADAARVIIYLLGALSAALALALACLVLLAAYWFRTRALNRRLEA
B2: Bacillus thuringiensis insecticidal protein (Bt toxin) Cry2Ab30 (natural protein)
chain: MNSVLNSGRTTICDAYNVAAHDPFSFQHKSLDTVQKEWTEWKKNNHSLYLDPIVGTVASFLLKKVGSLVGKRILSELRNLIFPSGSTNLMQDILRETEKFLNQRLNTDTLARVNAELTGLQANVEEFNRQVDNFLNPNRNAVPLSITSSVNTMQQLFLNRLPQFQMQGYQLLLLPLFAQAANLHLSFIRDVILNADEWGISAATLRTYRDYLKNYTRDYSNYCINTYQSAFKGLNTRLHDMLEFRTYMFLNVFEYVSIWSLFKYQSLLVSSGANLYASGSGPQQTQSFTSQDWPFLYSLFQVNSNYVLNGFSGARLSNTFPNIVGLPGSTTTHALLAARVNYSGGISSGDIGASPFNQNFNCSTFLPPLLTPFVRSWLDSGSDREGVATVTNWQTESFETTLGLRSGAFTARGNSNYFPDYFIRNISGVPLVVRNEDLRRPLHYNEIRNIASPSGTPGGARAYMVSVHNRKNNIHAVHENGSMIHLAPNDYTGFTISPIHATQVNNQTRTFISEKFGNQGDSLRFEQNNTTARYTLRGNGNSYNLYLRVSSIGNSTIRVTINGRVYTATNVNTTTNNDGVNDNGARFSDINIGNVVASSNSDVPLDINVTLNSGTQFDLMNIMLVPTNISPLY

How the values were obtained:
[1] = target: Cry2Ab–AVM bioconjugate (Cry2Ab30 conjugated with 4''-O-succinyl avermectin) (Bacillus thuringiensis, 4''-O-succinyl avermectin joined by an amide bond to amino groups of Cry2Ab30; sites and number not determined (Lys 232 named as potential site from a homology model)); assay: BLI
[2] = target: B1; assay: BLI

Binder	koff [1] [s⁻¹]	koff [2] [s⁻¹]
B1	0.000569	–
B2	–	0.000567
